# Laboratory results taken from US20080233097A1, “Phosphorylation Site Of Mitogen-Activated Protein Kinases, Modified Proteins And Applications” (UNIVERSIDAD AUTONOMA DE MADRID, priority 2005, published 2008).
# T1: GRK2 (Bos taurus, UniProt P21146)
# T1 construct: made in house; host or cells: Sf9 cells (baculovirus)
# T1 sequence (P21146 1-689): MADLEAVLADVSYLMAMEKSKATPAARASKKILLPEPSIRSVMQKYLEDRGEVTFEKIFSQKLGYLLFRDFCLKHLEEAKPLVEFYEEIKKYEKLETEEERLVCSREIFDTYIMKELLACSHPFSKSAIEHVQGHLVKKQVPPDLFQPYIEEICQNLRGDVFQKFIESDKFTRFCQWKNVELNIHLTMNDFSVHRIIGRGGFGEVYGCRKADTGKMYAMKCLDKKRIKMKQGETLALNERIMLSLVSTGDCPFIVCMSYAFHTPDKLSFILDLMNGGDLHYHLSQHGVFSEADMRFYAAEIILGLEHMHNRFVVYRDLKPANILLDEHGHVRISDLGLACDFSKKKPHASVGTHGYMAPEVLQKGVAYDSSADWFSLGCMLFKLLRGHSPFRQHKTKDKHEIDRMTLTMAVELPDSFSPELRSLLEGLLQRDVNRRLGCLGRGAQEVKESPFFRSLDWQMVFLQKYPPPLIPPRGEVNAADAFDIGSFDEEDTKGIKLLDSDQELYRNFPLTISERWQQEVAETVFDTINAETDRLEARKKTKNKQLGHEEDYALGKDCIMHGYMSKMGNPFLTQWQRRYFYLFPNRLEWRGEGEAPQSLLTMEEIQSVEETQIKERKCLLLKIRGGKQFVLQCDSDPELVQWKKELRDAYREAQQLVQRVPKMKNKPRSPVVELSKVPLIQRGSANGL
# B1: p38T123D: p38α mutant; aspartic acid mimics the constitutively phosphorylated form of threonine 123 (protein, UniProt P47811 2-360, looked up, variant T123D)
# Mitogen-activated protein …: SQERPTFYRQELNKTIWEVPERYQNLSPVGSGAYGSVCAAFDTKTGHRVAVKKLSRPFQSIIHAKRTYRELRLLKHMKHENVIGLLDVFTPARSLEEFNDVYLVTHLMGADLNNIVKCQKLDDDHVQFLIYQILRGLKYIHSADIIHRDLKPSNLAVNEDCELKILDFGLARHTDDEMTGYVATRWYRAPEIMLNWMHYNQTVDIWSVGCIMAELLTGRTLFPGTDHIDQLKLILRLVGTPGAELLKKISSESARNYIQSLAQMPKMNFANVFIGANPLAVDLLEKMLVLDSDKRITAAQALAHAYFAQYHDPDDEPVADPYDQSFESRDLLIDEWKSLTYDEVISFVPPPLDQEEMES
# modifications: GST or Flag tag in some forms
# Assays:
# MKK6 = test: GST pull-down of purified MKK6; type: binding; conditions: GST-p38 300 nM, MKK6 3 nM; vs T123A mutant or wild type
# Protocol: Purified GST-p38 and its T123 mutants (300 nM) were incubated in the presence of purified MKK6 (3 nM) or His-tagged MAPKAPK2 ([…], 20 nM) in a pull down assay with GST as a negative control. Sedimented proteins were developed by Western Blot using anti-MKK6, anti-Histidine (for His-MK2) or anti-GST (for total amounts of GST-p38s) antibodies. In all panels, results are representative of three independent experiments performed in duplicate.
# The proteins GST, GST-p38 wt, GST-p38T123A and GST-p38T123D were bacterially expressed and isolated using Gluthatione-Sepharose 4B (GE-Amersham) following standard procedures (Murga, C. et al. High affinity binding of beta-adrenergic receptor kinase to microsomal membranes. Modulation of the activity of bound kinase by heterotrimeric G protein activation. J Biol Chem 271, 985-994 (1996)). His-MAPKAPK2 was purified using Probond resin (Invitrogen) following manufacturer's indications. MKK6CAM was purchased from Upstate Biotech. The amount of proteins detailed in the legend to each figure were incubated in binding buffer (25 mM Tris pH 7.5, 0.25 M NaCl, 10 mM MgCl2, 5 mM NaF and 0.5% BSA) for 30 min at 30° C. with constant shaking. ATP (50 μM) was added for MAPKAPK2 pull downs. Precipitates were washed three times (10 ml) with the same buffer containing 0.5% Triton X100. Precipitated complexes were resolved by SDS-PAGE and developed by Western Blot.
# GRK2 = molecular target: T1, GRK2; test: phosphorylation of p38 mutants and truncated proteins by GRK2 in vitro; type: biochemical; conditions: GST fusion proteins, 30 minutes at 30° C.
# Protocol: FIG. 6A: Proteins fused to GST (black rectangle in the protein schemes) were purified from bacteria transformed with the plasmids pGEX2T-p38α, pGEX4T-Mxi2 and pGEX4T-Mxi2Δ17: p38α, Mxi2 and Mxi2Δ17. The […] isoforms used as C-terminal truncated mutants for trying to limit the GRK2 phosphorylation site. […] Heparin (150 nM) was included as a specific GRK2 inhibitor. The reactions were stopped by adding SDS breaking buffer. The samples were resolved in 8% SDS-PAGE. For the purpose of assuring the inclusion of identical amounts of protein, they were first visualized in the gel by Coomassie Brilliant Blue (CBB) staining. Then the gel was dried and the radioactivity incorporated to the proteins (^32P) was detected. FIG. 6B: The truncated GST-280-360p38 protein, corresponding to the last 80 p38α amino acids, was generated by means of the Invitrogen Gateway system. Phosphorylation assays were carried out with Mxi2Δ17 as a p38 N-terminal, 280-360 p38 as C-terminal and with whole p38α in the same conditions as described in section A. The phosphorylation was detected by autoradiography (^32P) and controls of the amount of protein used in the assays were carried out concomitantly by Western blot with the anti-GST antibody. The presence of the GST-280-360p38 protein, which is not phosphorylated, is clearly observed. STD, mobility of standard molecular weight proteins.
# FIG. 9A: p38T123A and p38T123D proteins, fused to GST, were made by directed mutagenesis in the prokaryotic expression plasmids pGEX2T. The ability of the recombinant GST-p38T123A and GST-p38T123D proteins to be GRK2 substrates in comparison to the wild GST-p38WT protein and at the final concentrations indicated in the Figure was assayed. The upper panels represent the obtained phosphorylation (32 P) and the lower panels show, by anti-p38N WB, the amount of recombinant protein used in the assays. […]
# Heparin (150 nM) was included as a specific GRK2 inhibitor. […] Subsequently, the gel was dried and the radioactivity incorporated to the proteins (^32P) was detected. […]
molecule,measurement,setting,value
B1,ability to associate to MKK6,MKK6,severely impaired
same,ability to be a GRK2 substrate (32P incorporation),GRK2,none of the two mutant is a GRK2 substrate
